Source: paper PMC5053586 (Cell Cycle, 2016)

Key:
[1] = target: T1, TbERK8 (extracellular-signal regulated kinase 8 homolog, Tb927.10.5140) (Trypanosoma brucei, UniProt Q38B88); assay: […]-ATP kinase assay with MBP substrate, eight-point dose response; assay type: biochemical
T1 sequence (Q38B88 1-442): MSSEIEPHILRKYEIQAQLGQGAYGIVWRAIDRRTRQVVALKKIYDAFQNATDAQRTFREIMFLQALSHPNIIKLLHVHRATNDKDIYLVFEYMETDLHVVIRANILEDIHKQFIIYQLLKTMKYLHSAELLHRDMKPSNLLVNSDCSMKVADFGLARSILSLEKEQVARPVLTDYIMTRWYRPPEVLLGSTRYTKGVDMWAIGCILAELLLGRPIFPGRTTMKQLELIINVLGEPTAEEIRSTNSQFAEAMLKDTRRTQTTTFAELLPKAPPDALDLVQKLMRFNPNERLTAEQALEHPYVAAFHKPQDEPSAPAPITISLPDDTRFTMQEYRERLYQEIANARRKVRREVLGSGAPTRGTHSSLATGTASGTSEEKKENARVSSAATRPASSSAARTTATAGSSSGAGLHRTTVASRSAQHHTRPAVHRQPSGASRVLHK

[2] = target: GST-TbERK8-PIP-box fusion protein (GSTtbE8-PIP) (Trypanosoma brucei); assay: pull-down
[3] = target: GST-bound canonical PIP-box from T. brucei aurora kinase 1 (GSTtbAUK1-PIP) (Trypanosoma brucei); assay: pull-down
[4] = target: GST-bound canonical PIP-box from T. brucei paraflagellar complex TbPFC19 (GSTtbPFC-PIP) (Trypanosoma brucei); assay: pull-down
[5] = target: T1, TbERK8 (extracellular-signal regulated kinase 8 homolog, Tb927.10.5140); assay: HTRF kinase assay; assay type: biochemical

## Cn1cc(C2=C(c3cn(CCCSC(=N)N)c4ccccc34)C(=O)NC2=O)c2ccccc21 [Ro318220]
[1]
  IC50: 1.4 µM

## hemagglutinin-tagged TbPCNA (wt-TbPCNAHA) (natural protein)
[2]
  fold pulled down against GST-Ctrl beads: 5 fold

## recombinant wt-TbPCNA6H (natural protein)
[3]
  fold pulled down against the TbERK8 PIP-box motif: 5 fold
[4]
  fold pulled down against the TbERK8 PIP-box motif: 3 fold

## COc1ccccc1C(=O)c1cnc(NC2CCN(C(=O)Nc3ccccc3)CC2)nc1N [SCYX5070]
[5]
  IC50: ~1600 µM
